Test results from paper PMC3413154.
Residue numbers refer to the chain shown, from its start.

Legend:
Experiment in all cases: EMSA
[1] = biological target: T1, A1Δ (L23 deletion);L2 RNA-editing ligase (full length, mature) (Trypanosoma brucei;Trypanosoma brucei, UniProt Q95W15;P86925 196-657+=GASG+696-762;21-416, internal_change|)
T1 sequence 1: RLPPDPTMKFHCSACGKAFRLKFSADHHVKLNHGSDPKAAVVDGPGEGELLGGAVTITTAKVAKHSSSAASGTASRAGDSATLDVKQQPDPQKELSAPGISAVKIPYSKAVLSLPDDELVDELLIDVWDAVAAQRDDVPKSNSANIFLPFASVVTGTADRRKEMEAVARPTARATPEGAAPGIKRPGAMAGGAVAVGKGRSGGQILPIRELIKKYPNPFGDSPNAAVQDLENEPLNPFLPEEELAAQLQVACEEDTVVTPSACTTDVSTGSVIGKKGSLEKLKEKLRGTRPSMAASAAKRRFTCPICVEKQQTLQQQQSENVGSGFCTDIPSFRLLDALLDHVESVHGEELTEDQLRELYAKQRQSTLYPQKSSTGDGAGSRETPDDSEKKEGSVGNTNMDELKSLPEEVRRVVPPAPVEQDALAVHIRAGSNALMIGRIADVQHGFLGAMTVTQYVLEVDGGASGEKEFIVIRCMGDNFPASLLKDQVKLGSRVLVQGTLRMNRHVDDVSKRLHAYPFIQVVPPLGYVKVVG
T1 sequence 2: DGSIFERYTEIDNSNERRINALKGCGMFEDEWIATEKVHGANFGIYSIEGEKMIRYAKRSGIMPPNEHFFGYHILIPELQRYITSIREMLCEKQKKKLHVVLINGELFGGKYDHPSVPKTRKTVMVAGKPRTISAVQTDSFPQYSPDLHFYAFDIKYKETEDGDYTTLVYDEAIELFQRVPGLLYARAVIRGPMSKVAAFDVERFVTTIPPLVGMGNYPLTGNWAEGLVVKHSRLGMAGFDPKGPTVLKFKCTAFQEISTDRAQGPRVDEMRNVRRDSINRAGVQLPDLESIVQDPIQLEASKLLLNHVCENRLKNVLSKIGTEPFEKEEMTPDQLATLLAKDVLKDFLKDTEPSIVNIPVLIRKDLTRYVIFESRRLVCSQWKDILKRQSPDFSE

[2] = biological target: T2, A1 R731E;L2 RNA-editing ligase (full length, mature) (Trypanosoma brucei;Trypanosoma brucei, UniProt Q95W15;P86925 196-762;21-416, R731E|)
T2 sequence 1: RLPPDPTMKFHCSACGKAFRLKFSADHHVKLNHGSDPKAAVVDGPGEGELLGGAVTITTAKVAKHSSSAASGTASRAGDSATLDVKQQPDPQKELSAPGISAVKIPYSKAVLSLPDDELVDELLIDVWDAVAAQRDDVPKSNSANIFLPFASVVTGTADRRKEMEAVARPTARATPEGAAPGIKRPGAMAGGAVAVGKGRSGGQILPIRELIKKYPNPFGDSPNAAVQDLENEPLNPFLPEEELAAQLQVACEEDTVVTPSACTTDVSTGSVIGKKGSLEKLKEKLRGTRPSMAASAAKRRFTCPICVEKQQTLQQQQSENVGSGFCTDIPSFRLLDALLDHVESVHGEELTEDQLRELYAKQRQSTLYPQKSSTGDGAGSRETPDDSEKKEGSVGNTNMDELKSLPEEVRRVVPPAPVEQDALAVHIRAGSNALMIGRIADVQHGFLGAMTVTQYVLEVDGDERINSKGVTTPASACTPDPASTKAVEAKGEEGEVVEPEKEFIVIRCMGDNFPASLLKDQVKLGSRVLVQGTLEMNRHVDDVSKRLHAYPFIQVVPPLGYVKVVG
T2 sequence 2: T1 sequence 2

[3] = biological target: T3, A1 R703E;L2 RNA-editing ligase (full length, mature) (Trypanosoma brucei;Trypanosoma brucei, UniProt Q95W15;P86925 196-762;21-416, R703E|)
T3 sequence 1: T2 sequence 1 with R508E, E536R
T3 sequence 2: T1 sequence 2

[4] = biological target: T4, A1 R734E;L2 RNA-editing ligase (full length, mature) (Trypanosoma brucei;Trypanosoma brucei, UniProt Q95W15;P86925 196-762;21-416, R734E|)
T4 sequence 1: T2 sequence 1 with E536R, R539E
T4 sequence 2: T1 sequence 2

[5] = biological target: T5, A1 L2BD;L2 RNA-editing ligase (full length, mature) (Trypanosoma brucei;Trypanosoma brucei, UniProt Q95W15;P86925 196-331;21-416, |)
T5 sequence 1: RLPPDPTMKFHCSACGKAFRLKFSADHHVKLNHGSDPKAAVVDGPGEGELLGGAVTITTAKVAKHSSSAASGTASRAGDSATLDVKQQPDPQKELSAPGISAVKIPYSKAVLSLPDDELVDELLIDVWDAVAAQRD
T5 sequence 2: T1 sequence 2

[6] = biological target: T6, A1 (full length, mature);L2 A1BD (Trypanosoma brucei;Trypanosoma brucei, UniProt Q95W15;P86925 196-762;308-416, |)
T6 sequence 1: T2 sequence 1 with E536R
T6 sequence 2: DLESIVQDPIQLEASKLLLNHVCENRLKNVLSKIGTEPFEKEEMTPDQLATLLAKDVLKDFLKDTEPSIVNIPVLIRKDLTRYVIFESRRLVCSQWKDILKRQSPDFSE

[7] = biological target: T7, A1 (full length, mature);L2 RNA-editing ligase (full length, mature) (Trypanosoma brucei;Trypanosoma brucei, UniProt Q95W15;P86925 196-762;21-416, |)
T7 sequence 1: T2 sequence 1 with E536R
T7 sequence 2: T1 sequence 2

L2 NTase domain = biological target: T8, L2 NTase domain (Trypanosoma brucei, UniProt P86925 21-285)
T8 sequence: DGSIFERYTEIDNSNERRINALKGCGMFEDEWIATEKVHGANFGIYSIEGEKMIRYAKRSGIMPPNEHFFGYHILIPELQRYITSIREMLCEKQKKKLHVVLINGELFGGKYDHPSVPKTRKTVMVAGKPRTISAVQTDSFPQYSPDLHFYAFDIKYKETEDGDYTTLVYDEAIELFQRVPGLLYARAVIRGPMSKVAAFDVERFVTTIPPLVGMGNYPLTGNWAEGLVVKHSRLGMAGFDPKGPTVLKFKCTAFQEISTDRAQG

B1: 26-mer nicked dsRNA (dsRNA)
RNA 1: AUGAGACGUAGGUU
RNA 2: UUAUCGGAGUUC
RNA 3: GAACUCCGAUAAAACCUACGUCUCAU
B1: binds [1]; no binding [2]; no binding [3]. B1: no binding [4]; no binding [5]; no binding [6]. B1: binds [7]; no binding (L2 NTase domain).
